Measured values as given in patent publication US20140370023A1 (HENRY M JACKSON FOUNDATION FOR THE ADVANCEMENT OF MILITARY …, published 2014).

Columns and labels:
[1] = target: T1, immunizing polypeptide (amino acids 42-66 of SEQ ID NO: 1) (human); assay: direct ELISA, peptides plated at 1 to 1000 ng/mL (x axis 'ERG, ng/mL', log scale), probed with 9FY at 1:10,000, absorbance at 450 nm
T1 construct: Chemically synthesized; also called ERG 42-66 polypeptide
T1 peptide: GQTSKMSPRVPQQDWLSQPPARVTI
Description: Various concentrations of the immunizing polypeptide and two control polypeptides were plated in wells for ELISA and were probed with 1:10,000 dilution of 9FY antibody. Y-axis indicates absorbance values at 450 nm. On the X-axis the log 10 concentration of the ERG immunizing polypeptide and control polypeptides is shown in ng/ml. […] In sandwich ELISA assay, ERG3 protein lysates were plated in multi-well format plates and were assayed with various concentrations of 9FY antibody in the presence (white bar) or absence of the immunizing polypeptide (shaded bar). Fold dilution is marked on the X-axis. Antibody titration values are marked by shaded bars.
In an ELISA assay, we assessed the sensitivity and specificity of the 9FY antibody measuring the titer of various concentrations of the immunizing polypeptide (i.e. amino acids 42-66 of SEQ ID NO: 1). For direct ELISA, plates were first coated with 100 μl of ERG3 antigen at 1 ng/ml, 10 ng/ml, 100 ng/ml and 1 μg/ml and incubated for 16 h at 4° C. on a shaker before washing the plate five times with PBSt (300 μl/well). […] Absorbance was measured at 450 nm on a […]® Ascent (Thermo Scientific, Waltham, Mass.) ELISA plate reader according to the manufacturer's recommendation and the absorbance were plotted against antibody dilution. […]

[2] = target: T2, human FLi1 protein with N-terminal FLAG tag (human, UniProt Q01543 1-452, limits assumed); assay: Western blot of transiently expressed FLAG-tagged protein
T2 construct: not shown: N-terminal FLAG tag
T2 sequence (looked up): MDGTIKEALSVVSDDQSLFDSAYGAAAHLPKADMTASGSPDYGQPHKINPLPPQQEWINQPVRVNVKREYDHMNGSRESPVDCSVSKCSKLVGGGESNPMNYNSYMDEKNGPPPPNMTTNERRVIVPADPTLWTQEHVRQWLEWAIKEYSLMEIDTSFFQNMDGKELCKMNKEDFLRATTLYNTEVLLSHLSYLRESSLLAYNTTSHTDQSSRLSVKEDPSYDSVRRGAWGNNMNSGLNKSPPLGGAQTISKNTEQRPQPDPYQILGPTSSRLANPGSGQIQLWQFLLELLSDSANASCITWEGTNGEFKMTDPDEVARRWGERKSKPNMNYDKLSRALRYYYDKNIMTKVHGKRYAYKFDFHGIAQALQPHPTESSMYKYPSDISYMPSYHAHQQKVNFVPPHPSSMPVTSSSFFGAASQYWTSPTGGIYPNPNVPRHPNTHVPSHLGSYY
Description: Therefore, the 9FY antibody was tested to see if it can discriminate between human ERG3 and the human FLi1 protein using Western blot assays. In this assay, transiently expressed human ERG3 (encoded by TMPRSS2/ERG3 construct) or human FLi1 protein was evaluated with the 9FY antibody.

[3] = target: T3, human ERG3 (wild type ERG3 protein, 53 kDa) (human, UniProt P11308 1-479); assay: sandwich ELISA on ERG3 protein lysate, 9FY titrated by fold dilution, absorbance at 450 nm; competitor: immunizing polypeptide
T3 construct: Expressed heterologously in HEK-293 cells (pIRES-EGFP(CMV)-ERG3), as protein lysate in the ELISA, or in LNCaP cells by Ad-ERG3 adenovirus; also called ERG3 antigen
T3 sequence: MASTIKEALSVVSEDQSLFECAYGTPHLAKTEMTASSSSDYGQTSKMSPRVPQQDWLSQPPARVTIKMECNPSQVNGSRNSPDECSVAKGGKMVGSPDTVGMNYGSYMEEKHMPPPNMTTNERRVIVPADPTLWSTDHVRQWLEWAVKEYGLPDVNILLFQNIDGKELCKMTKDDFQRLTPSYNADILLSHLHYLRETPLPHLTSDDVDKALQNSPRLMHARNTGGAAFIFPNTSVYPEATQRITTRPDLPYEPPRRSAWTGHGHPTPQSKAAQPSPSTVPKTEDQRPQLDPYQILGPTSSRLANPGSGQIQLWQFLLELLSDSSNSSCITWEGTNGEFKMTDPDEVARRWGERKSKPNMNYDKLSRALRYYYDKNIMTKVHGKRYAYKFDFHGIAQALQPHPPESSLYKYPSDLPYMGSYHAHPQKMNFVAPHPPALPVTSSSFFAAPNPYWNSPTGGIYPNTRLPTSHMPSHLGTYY

binding result [1]: binds
binding result [2]: no binding
binding result [3]: binds
B1: 9FY antibody (monoclonal antibody produced by the hybridoma clone 9FY) (antibody, V domains shown)
VH: QIQLVQSGPDLKKPGETVKISCKASGYTFTNYGINWVKQAPGKGFKWMGWIDTYTGEPTYVDDFKGRFVFSLETSASTAYLQINNLKNEDTATYFCVRKRAYDYEIYWGQGTPLTVSS
VL: ENVLTQSPAIMSASLGEKVTLSCRASSSVYYMFWYQQKSDASPKLWIYYTSNLAPGVPARFSGSGSGNSYSLTISSVEGEDAATYYCLQFSTSPWTFGGGTKLEIKR
notes: Mouse (Balb/C) hybridoma antibody purified from ascites over Protein G; sub-type determined to be IgG; also called ERG-MAb; 9FY monoclonal antibody
